# Numbering of substitutions follows the chain as printed. Numbers in names are those of the source. Where “and” joins values, the source holds several entries; their conditions need not be identical. Identical values can stand only once.
# T1: biotin-labeled cynomolgus monkey CD137 fused to human IgG1 Fc fragment (cynomolgus monkey; human, UniProt Q07011 24-186, limits assumed, biotin-labeled)
# T1 construct: also called cyno CD137-Fc; not shown: human IgG1 Fc fragment
# T1 chain: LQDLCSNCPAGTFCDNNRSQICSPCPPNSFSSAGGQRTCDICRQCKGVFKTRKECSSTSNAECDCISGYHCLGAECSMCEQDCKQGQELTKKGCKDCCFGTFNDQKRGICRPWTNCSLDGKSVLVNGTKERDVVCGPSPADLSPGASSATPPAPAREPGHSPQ
# B1: dBBDu139 (antibody, IgG1, V domains shown)
# VH: QVQLVESGGGLVQPGRSLRLSCAASGFTFSNAWMHWVRQAPGKGLEWVAQIKDRGNAYNAYYAESVKGRFTISRDDSKNSIYLQMNSLKTEDTAVYYCRFVHYRHPLLHIQYGVDAWGQGTTVTVSS
# VL: DIVMTQSPLSLPVTPGEPASISCRSSQSLVHSNRNTYLHWYQQKPGQAPRLLIYKVSNRFSGVPDRFSGSGSGTDFTLKISRVEAEDVGVYYCGQGTQVPYTFGQGTKLEIK
# notes: IgG1
# B2: dBBDu174 (antibody, IgG1, V domains shown)
# VH: QVQLVESGGGLVQPGRSLRLSCAASGFTFSSAWMHWVRQAPGKGLEWVAQIKDRASAYNAYYAESVKGRFTISRDDSKNSIYLQMNSLKTEDTAVYYCRYVHYPSYVSFLPYYGVDAWGQGTTVTVSS
# VL: B1 VL
# notes: IgG1
# B3: dBBDu183 (antibody, IgG1, V domains shown)
# VH: QVQLVESGGGLVQPGRSLRLSCAASGFTFSNAWMHWVRQAPGKGLEWVAQIKDKGNAYAAYYAPSVKGRFTISRDDSKNSIYLQMNSLKTEDTAVYYCHYVHYASASTVLPAFGVDAWGQGTTVTVSS
# VL: B1 VL
# notes: IgG1
# B4: dBBDu217 (antibody, IgG1, V domains shown)
# VH: QVQLVESGGGLVQPGRSLRLSCAASGFTFSNAWMHWVRQAPGKGLEWVAQIKDRQQGYATYYAPSVKGRFTISRDDSKNSIYLQMNSLKTEDTAVYYCRFVHYHLAGYGYYGVDAWGQGTTVTVSS
# VL: B1 VL
# notes: IgG1
# B5: dBBDu179 (antibody, IgG1, V domains shown)
# VH: B3 VH with K54R, G55S, A57Q, A60T
# VL: B1 VL
# notes: IgG1
# B6: dBBDu222 (antibody, IgG1, V domains shown)
# VH: QVQLVESGGGLVQPGRSLRLSCAASGFTISSAWMHWVRQAPGKGLEWVAQIKDRANGYAAYYAPSVKGRFTISRDDSKNSIYLQMNSLKTEDTAVYYCRYVHYATAYDGFYGFGVDAWGQGTTVTVSS
# VL: B1 VL
# notes: IgG1
# B7: DADU01_3#001 (antibody, IgG1, V domains shown)
# VH: QVQLVESGGGLVQPGRSLRLSCAASGFTFSIAWMHWVRQAPGKGLEWVAQIKDRVNAYEAYYAPSVKGRFTISRDDSKNSIYLQMNSLKTEDTAVYYCRYVHYASYYDLLGYGGVDAWGQGTTVTVSS
# VL: B1 VL
# notes: IgG1; also called dBBDu_126; dBBDu126
# B8: DADU01_3#018 (antibody, IgG1, V domains shown)
# VH: B3 VH with K54R, G55A, A57S, A59N, A104S, S105A, V109L, A112S
# VL: B1 VL
# notes: IgG1; also called dBBDu123
# B9: DXDU01_3#094 (antibody, IgG1, V domains shown)
# VH: B3 VH with S107A, T108G, V109G, A112G
# VL: B1 VL
# notes: IgG1; also called dBBDu121
# B10: DXDU01_3#051 (antibody, IgG1, V domains shown)
# VH: B3 VH with K54R, N56Q, A57Q, A59N, T108S, A112G, F113Y
# VL: B1 VL
# notes: IgG1; also called dBBDu127
# B11: CE115HA000 V11L/D72A/L78I/D101Q with GGS inserted between Kabat 99 and 100, one-arm antibody (antibody)
# chain 1: QVQLVESGGGLVQPGRSLRLSCAASGFTFSNAWMHWVRQAPGKGLEWVAQIKAKSNNYATYYAESVKGRFTISRADSKNSIYLQMNSLKTEDTAVYYCRYVHYGAGGSYYGVQAWGQGTTVTVSSASTKGPSVFPLAPSSKSTSGGTAALGCLVKDYFPEPVTVSWNSGALTSGVHTFPAVLQSSGLYSLSSVVTVPSSSLGTQTYICNVNHKPSNTKVDKKVEPKSCDKTHTCPPCPAPEAAGGPSVFLFPPKPKDTLMISRTPEVTCVVVDVSHEDPEVKFNWYVDGVEVHNAKTKPREEQYASTYRVVSVLTVLHQDWLNGKEYKCKVSNKALPAPIEKTISKAKGQPREPQVYTLPPSRCELTKNQVSLSCAVKGFYPSDIAVEWESNGQPENNYKTTPPVLDSDGSFFLVSKLTVDKSRWQQGNVFSCSVMHEALHNHYTQKSLSLSPDYKDDDDK
# chain 2: EPKSSDKTHTCPPCPAPELLGGPSVFLFPPKPKDTLMISRTPEVTCVVVDVSHEDPEVKFNWYVDGVEVHNAKTKPREEQYNSTYRVVSVLTVLHQDWLNGKEYKCKVSNKALPAPIEKTISKAKGQPREPQVCTLPPSRDELTKNQVSLWCLVKGFYPSDIAVEWESNGQPENNYKTTPPVLDSDGSFFLYSKLTVDKSRWQQGNVFSCSVMHEALHNRYTQKSLSLSP
# chain 3: DIVMTQSPLSLPVTPGEPASISCRSSQSLVHSNRNTYLHWYQQKPGQAPRLLIYKVSNRFSGVPDRFSGSGSGTDFTLKISRVEAEDVGVYYCGQGTQVPYTFGQGTKLEIKRTVAAPSVFIFPPSDEQLKSGTASVVCLLNNFYPREAKVQWKVDNALQSGNSQESVTEQDSKDSTYSLSSTLTLSKADYEKHKVYACEVTHQGLSSPVTKSFNRGEC
# B12: CE115HA000 V11L/D72A/L78I/D101Q without insertion, one-arm antibody (antibody, human IgG1, kappa, L234A L235A, N297A, name in Kabat numbering)
# heavy: QVQLVESGGGLVQPGRSLRLSCAASGFTFSNAWMHWVRQAPGKGLEWVAQIKAKSNNYATYYAESVKGRFTISRADSKNSIYLQMNSLKTEDTAVYYCRYVHYGAYYGVQAWGQGTTVTVSSASTKGPSVFPLAPSSKSTSGGTAALGCLVKDYFPEPVTVSWNSGALTSGVHTFPAVLQSSGLYSLSSVVTVPSSSLGTQTYICNVNHKPSNTKVDKKVEPKSCDKTHTCPPCPAPEAAGGPSVFLFPPKPKDTLMISRTPEVTCVVVDVSHEDPEVKFNWYVDGVEVHNAKTKPREEQYASTYRVVSVLTVLHQDWLNGKEYKCKVSNKALPAPIEKTISKAKGQPREPQVYTLPPSRCELTKNQVSLSCAVKGFYPSDIAVEWESNGQPENNYKTTPPVLDSDGSFFLVSKLTVDKSRWQQGNVFSCSVMHEALHNHYTQKSLSLSPDYKDDDDK
# chain: B11 chain 2
# light: B11 chain 3
# notes: one-arm antibody; 'No insertion' read as the altered H chain without linker; also called No insertion
# B13: CE115HA000 V11L/D72A/L78I/D101Q with GGSGGSGGS inserted between Kabat 99 and 100, one-arm antibody (antibody)
# chain 1: QVQLVESGGGLVQPGRSLRLSCAASGFTFSNAWMHWVRQAPGKGLEWVAQIKAKSNNYATYYAESVKGRFTISRADSKNSIYLQMNSLKTEDTAVYYCRYVHYGAGGSGGSGGSYYGVQAWGQGTTVTVSSASTKGPSVFPLAPSSKSTSGGTAALGCLVKDYFPEPVTVSWNSGALTSGVHTFPAVLQSSGLYSLSSVVTVPSSSLGTQTYICNVNHKPSNTKVDKKVEPKSCDKTHTCPPCPAPEAAGGPSVFLFPPKPKDTLMISRTPEVTCVVVDVSHEDPEVKFNWYVDGVEVHNAKTKPREEQYASTYRVVSVLTVLHQDWLNGKEYKCKVSNKALPAPIEKTISKAKGQPREPQVYTLPPSRCELTKNQVSLSCAVKGFYPSDIAVEWESNGQPENNYKTTPPVLDSDGSFFLVSKLTVDKSRWQQGNVFSCSVMHEALHNHYTQKSLSLSPDYKDDDDK
# chain 2: B11 chain 2
# chain 3: B11 chain 3
# B14: CE115HA000 V11L/D72A/L78I/D101Q with GGSGGS inserted between Kabat 99 and 100, one-arm antibody (antibody)
# chain 1: QVQLVESGGGLVQPGRSLRLSCAASGFTFSNAWMHWVRQAPGKGLEWVAQIKAKSNNYATYYAESVKGRFTISRADSKNSIYLQMNSLKTEDTAVYYCRYVHYGAGGSGGSYYGVQAWGQGTTVTVSSASTKGPSVFPLAPSSKSTSGGTAALGCLVKDYFPEPVTVSWNSGALTSGVHTFPAVLQSSGLYSLSSVVTVPSSSLGTQTYICNVNHKPSNTKVDKKVEPKSCDKTHTCPPCPAPEAAGGPSVFLFPPKPKDTLMISRTPEVTCVVVDVSHEDPEVKFNWYVDGVEVHNAKTKPREEQYASTYRVVSVLTVLHQDWLNGKEYKCKVSNKALPAPIEKTISKAKGQPREPQVYTLPPSRCELTKNQVSLSCAVKGFYPSDIAVEWESNGQPENNYKTTPPVLDSDGSFFLVSKLTVDKSRWQQGNVFSCSVMHEALHNHYTQKSLSLSPDYKDDDDK
# chain 2: B11 chain 2
# chain 3: B11 chain 3
# B15: CE115HA000 one-arm antibody (antibody, human IgG1, kappa, L234A L235A, N297A)
# heavy: B12 heavy with L11V, A75D, I81L, Q110D
# chain: B11 chain 2
# light: B11 chain 3
# notes: one-arm antibody
# B16: CE115HA000 V11L/D72A/L78I/D101Q with GGGSGGGS inserted between Kabat 99 and 100, one-arm antibody (antibody)
# chain 1: QVQLVESGGGLVQPGRSLRLSCAASGFTFSNAWMHWVRQAPGKGLEWVAQIKAKSNNYATYYAESVKGRFTISRADSKNSIYLQMNSLKTEDTAVYYCRYVHYGAGGGSGGGSYYGVQAWGQGTTVTVSSASTKGPSVFPLAPSSKSTSGGTAALGCLVKDYFPEPVTVSWNSGALTSGVHTFPAVLQSSGLYSLSSVVTVPSSSLGTQTYICNVNHKPSNTKVDKKVEPKSCDKTHTCPPCPAPEAAGGPSVFLFPPKPKDTLMISRTPEVTCVVVDVSHEDPEVKFNWYVDGVEVHNAKTKPREEQYASTYRVVSVLTVLHQDWLNGKEYKCKVSNKALPAPIEKTISKAKGQPREPQVYTLPPSRCELTKNQVSLSCAVKGFYPSDIAVEWESNGQPENNYKTTPPVLDSDGSFFLVSKLTVDKSRWQQGNVFSCSVMHEALHNHYTQKSLSLSPDYKDDDDK
# chain 2: B11 chain 2
# chain 3: B11 chain 3
# B17: CE115HA000 V11L/D72A/L78I/D101Q with GGSGGGS inserted between Kabat 99 and 100, one-arm antibody (antibody)
# chain 1: QVQLVESGGGLVQPGRSLRLSCAASGFTFSNAWMHWVRQAPGKGLEWVAQIKAKSNNYATYYAESVKGRFTISRADSKNSIYLQMNSLKTEDTAVYYCRYVHYGAGGSGGGSYYGVQAWGQGTTVTVSSASTKGPSVFPLAPSSKSTSGGTAALGCLVKDYFPEPVTVSWNSGALTSGVHTFPAVLQSSGLYSLSSVVTVPSSSLGTQTYICNVNHKPSNTKVDKKVEPKSCDKTHTCPPCPAPEAAGGPSVFLFPPKPKDTLMISRTPEVTCVVVDVSHEDPEVKFNWYVDGVEVHNAKTKPREEQYASTYRVVSVLTVLHQDWLNGKEYKCKVSNKALPAPIEKTISKAKGQPREPQVYTLPPSRCELTKNQVSLSCAVKGFYPSDIAVEWESNGQPENNYKTTPPVLDSDGSFFLVSKLTVDKSRWQQGNVFSCSVMHEALHNHYTQKSLSLSPDYKDDDDK
# chain 2: B11 chain 2
# chain 3: B11 chain 3
# Target: T1, biotin-labeled cynomolgus monkey CD137 …
# Assay: ELISA, IgG
row,binding result,Binder
1,binds,B1
2,binds,B2
3,binds,B3
4,binds,B4
5,binds,B5
6,binds,B6

# Target: T2, biotin labeled human IgG1 Fc (human, UniProt P01857-1 104-330 = IgG part, limits assumed, biotin-labeled)
# T2 construct: domain: Fc region; control antigen; also called human Fc
# Assay: bead ELISA, IgG
# Experimental: First, 20 micro g of Streptavidin-coated magnetic beads MyOne-T1 beads was washed three-times with blocking buffer including 0.5× block Ace, 0.02% Tween and 0.05% ProClin 300 and then blocked with this blocking buffer at room temperature for 60 minutes or more. […] After that each well was washed with TBST. […] The plate was incubated for one hour. […] 2 minutes later the fluorescence of each well was detected.
row,RLU [RLU],Binder
1,1760,B7
2,1900,B8
3,2370,B9
4,2910,B10

# Target: biotinylated CD3 epsilon epitope peptide
# Assay: SPR, method of Ref. Ex. 3, one-arm Ab
row,Kd,Binder
1,63.1 nM,B11
2,6.96 nM,B12
3,43.9 nM and 35.4 nM,B13
4,34.6 nM and 31.1 nM,B14
5,110 nM,B15
6,41.3 nM and 37.5 nM,B16
7,43.5 nM and 34.3 nM,B17

# — patent publication US20200377595A1 (Chugai, published 2020)
